Experimental findings from patent publication US20240294593A1 are described below.

Numbering of substitutions follows the chain as printed.

In test [1] the target is human PD-1-His (human) (UniProt Q15116). Nature of the test: Octet tandem epitope binning: PD-1-His on HIS1K biosensor, first dip PDL1-Fc (row), second dip 1C11-based mAb; normalized to HBS-EP first dip. A general note: In BLI a coated tip is dipped into the sample, and binding shifts an interference pattern.
The target is the same in test [2]. Nature of the test: Octet tandem epitope binning: PD-1-His on HIS1K biosensor, first dip chmAb A (row), second dip 1C11-based mAb; normalized to HBS-EP first dip.
For test [3] the target is unchanged. Nature of the test: Octet tandem epitope binning: PD-1-His on HIS1K biosensor, first dip chmAb B (row), second dip 1C11-based mAb; normalized to HBS-EP first dip.
The target is the same in test [4]. Nature of the test: Octet tandem epitope binning: PD-1-His on HIS1K biosensor, first dip XENP16432 (row), second dip 1C11-based mAb; normalized to HBS-EP first dip.
Test [5] has the same target. Nature of the test: Octet tandem epitope binning: PD-1-His on HIS1K biosensor, first dip XENP21461 (row), second dip 1C11-based mAb; normalized to HBS-EP first dip.
Test [6] shares this target. Nature of the test: Octet tandem epitope binning: PD-1-His on HIS1K biosensor, first dip 1C11-based mAb (row), second dip 1C11-based mAb; normalized to HBS-EP first dip.
The target is the same in test [7]. Nature of the test: Octet tandem epitope binning: PD-1-His on HIS1K biosensor, first dip HBS-EP buffer (row; the reference of the normalization), second dip 1C11-based mAb.
For test [8] the target is unchanged. Nature of the test: Octet.
For test [9] the target is unchanged. Nature of the test: Octet; in the context of PD-1-targeted IL-15/Rα-Fc fusion; reference mAb C H1L1.

Sequence of human PD-1-His (human) (Q15116 25-167 limits assumed): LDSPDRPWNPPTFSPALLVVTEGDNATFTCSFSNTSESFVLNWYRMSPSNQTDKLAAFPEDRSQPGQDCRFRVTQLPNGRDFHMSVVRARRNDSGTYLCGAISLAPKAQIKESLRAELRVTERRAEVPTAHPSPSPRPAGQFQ

B1: 1C11-based mAb (antibody, from another filing, V domains shown)
VH: QIQLVQSGPELKKPGETVKISCRASGYTFTHYGMNWVKQAPGKGLKWMGWINTYTGEPTYADDFKGRFAFSLETSASTAYLQINNLKNEDTATYFCARDYYGSSPYWGQGTTLTVSS
VL: DVLMTQTPLSLPVSLGDQASISCRSSQSIVHSNGNTYLEWYLQKPGQSPKLLIYKVSNRFSGVPDRFSGSGSGTDFTLKISRVEAEDLGVYYCFQGSHVPNTFGGGTKLEIKR
B1: the normalized BLI-response with human PD-1-His (human) [1] was found to be 0.621; in the test with human PD-1-His (human) [2], 0.966; with human PD-1-His (human) [3], 0.253; in the test with human PD-1-His (human) [4], 0.29; in the test with human PD-1-His (human) [5] it was 0.405; in the test with human PD-1-His (human) [6], 0.0987. This molecule also returned a normalized BLI-response with human PD-1-His (human) [7] of 1.

B2: mAb C H1.19_L1.1 (in the context of PD-1-targeted IL-15/Rα-Fc fusion) (Fc fusion, part only; not given: IL-15/Rα-Fc chain, constant regions, not shown: another chain or arm of the molecule; a dimerising Fc or GST; small tags and cut ends)
VH: EVQLVESGGGLVQPGGSLRLSCAASGFTFSSLGMHWVRQAPGKGLEWVSYISSGSSIIYYADSVKGRFTISRDNAKNSLYLQMNSLRAEDTAVYYCARGGRLVWSPDYWGQGTLVTVSS
VL: DIVMTQSPDSLAVSLGERATINCKSSQSLLHSGNQKNYLTWYQQKPGQPPKLLIYWASTRESGVPDRFTGSGSGTDFTLTISSLQAEDVAVYYCQNDYSYPFTFGSGTKLEIK
For B2, in the test with human PD-1-His (human) [8], the Kd (usually the equilibrium constant for the complex coming apart) is 2.29 nM; the koff (commonly the first-order rate constant of dissociation) was 0.00017 s⁻¹; the kon (as a rule, the second-order rate constant of association) was 74400 M⁻¹ s⁻¹.

B3: mAb C H1_L1.140 (in the context of PD-1-targeted IL-15/Rα-Fc fusion) (Fc fusion, part only; not given: IL-15/Rα-Fc chain, constant regions, not shown: another chain or arm of the molecule; a dimerising Fc or GST; small tags and cut ends)
VH: B2 VH with L32F
VL: B2 VL with K36Y, S99T
Regarding B3, in the test with human PD-1-His (human) [8], the Kd stood at 1.62 nM, the koff is 0.000122 s⁻¹ and the kon worked out at 74800 M⁻¹ s⁻¹. Also, the fold improvement in KD over wild-type in the test with human PD-1-His (human) [9] was determined as 36 fold.

B4: mAb C H1.132_L1.140 (in the context of PD-1-targeted IL-15/Rα-Fc fusion) (Fc fusion, part only; not given: IL-15/Rα-Fc chain, constant regions, not shown: another chain or arm of the molecule; a dimerising Fc or GST)
VH: B2 VH with L32F, R101W
VL: B2 VL with K36Y, S99T
With B4, in the test with human PD-1-His (human) [8], the Kd was 0.543 nM, the koff stood at 7.88e-05 s⁻¹ and the association rate constant (kon) was found to be 145000 M⁻¹ s⁻¹. The fold improvement in KD over wild-type in the test with human PD-1-His (human) [9] came out at 100 fold.

B5: mAb C H1.175_L1.140 (in the context of PD-1-targeted IL-15/Rα-Fc fusion) (Fc fusion, part only; not given: IL-15/Rα-Fc chain, constant regions, not shown: another chain or arm of the molecule; a dimerising Fc or GST)
VH: B2 VH with S53G, R101W
VL: B2 VL with K36Y, S99T
In the test with human PD-1-His (human) [8], B5 showed a Kd of 0.624 nM, an off-rate (koff) of 7.88e-05 s⁻¹ and a kon of 126000 M⁻¹ s⁻¹. The same molecule gave a fold improvement in KD over wild-type with human PD-1-His (human) [9] of 100 fold.
